The values that follow come from patent US20150266967A1 (Boehringer Ingelheim, published 2015).

The target in assay [1] is T1, recombinant Fcγ-receptor 3a protein, high affinity V158 allotype (UniProt P08637 17-208).
T1 construct: also called Fcγ-receptor 3a V158; FC gamma receptor 3a
Kind of assay: surface plasmon resonance, KD compared with reference antibody. Background: SPR reads the build-up and loss of mass on a sensor chip optically.

For assay [2], the target named is T2, recombinant Fcγ-receptor 3a protein, low affinity F158 allotype (UniProt P08637 17-208).
T2 construct: F158 allotype; also called Fcγ-receptor 3a F158; FC gamma receptor 3a
Kind of assay: surface plasmon resonance, KD from ka and kd; A2, F158 allotype.

For assay [3], the target named is T1, recombinant Fcγ-receptor 3a protein, …. Kind of assay: surface plasmon resonance, KD from ka and kd.
The target in assay [4] is T2, recombinant Fcγ-receptor 3a protein, …. Kind of assay: surface plasmon resonance, KD from ka and kd; B2, F158 allotype.

T1 sequence (P08637 17-208 F176V): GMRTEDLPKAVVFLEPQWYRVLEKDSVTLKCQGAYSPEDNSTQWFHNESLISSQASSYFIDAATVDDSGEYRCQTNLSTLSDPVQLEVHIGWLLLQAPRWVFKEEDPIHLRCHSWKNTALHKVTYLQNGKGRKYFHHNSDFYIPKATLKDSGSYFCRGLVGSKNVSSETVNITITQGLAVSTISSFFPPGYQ
T2 sequence (P08637 17-208 limits assumed): as the sequence (P08637 17-208 F176V) above, with V160F counted along it

B1: CD37 antibody A2 (antibody, human IgG1, kappa)
heavy: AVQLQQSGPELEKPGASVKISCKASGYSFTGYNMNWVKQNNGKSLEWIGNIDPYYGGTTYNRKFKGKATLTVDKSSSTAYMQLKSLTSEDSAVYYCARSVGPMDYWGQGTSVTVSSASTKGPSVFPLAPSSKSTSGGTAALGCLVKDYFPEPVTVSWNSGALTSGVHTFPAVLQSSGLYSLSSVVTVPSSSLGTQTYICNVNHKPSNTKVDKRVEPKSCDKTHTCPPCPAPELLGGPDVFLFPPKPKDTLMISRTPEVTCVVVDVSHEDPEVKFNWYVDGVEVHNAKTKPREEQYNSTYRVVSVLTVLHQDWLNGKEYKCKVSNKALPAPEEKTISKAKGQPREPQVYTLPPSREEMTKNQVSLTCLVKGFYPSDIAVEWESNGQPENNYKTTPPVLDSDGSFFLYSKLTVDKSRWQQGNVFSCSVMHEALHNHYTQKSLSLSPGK
light: DIQMTQSPASLSASVGETVTITCRTSENVYSYLAWYQQKQGKSPQLLVSFAKTLAEGVPSRFSGSGSGTQFSLKISSLQPEDSGSYFCQHHSDNPWTFGGGTELEIKRTVAAPSVFIFPPSDEQLKSGTASVVCLLNNFYPREAKVQWKVDNALQSGNSQESVTEQDSKDSTYSLSSTLTLSKADYEKHKVYACEVTHQGLSSPVTKSFNRGEC
notes: Fc-engineered CD37 antibody; copies: 2 + 2
One may read the Kd as a measure of binding affinity in units of concentration. As for B1, the “fold increased binding against the non Fc-engineered IgG1 reference antibody” value in assay [1] was around 40 fold. Also, the Kd in assay [2] came out at 17.5 nM; in assay [3] it was 8.8 nM.

B2: CD37 antibody B2 (antibody, human IgG1, kappa)
heavy: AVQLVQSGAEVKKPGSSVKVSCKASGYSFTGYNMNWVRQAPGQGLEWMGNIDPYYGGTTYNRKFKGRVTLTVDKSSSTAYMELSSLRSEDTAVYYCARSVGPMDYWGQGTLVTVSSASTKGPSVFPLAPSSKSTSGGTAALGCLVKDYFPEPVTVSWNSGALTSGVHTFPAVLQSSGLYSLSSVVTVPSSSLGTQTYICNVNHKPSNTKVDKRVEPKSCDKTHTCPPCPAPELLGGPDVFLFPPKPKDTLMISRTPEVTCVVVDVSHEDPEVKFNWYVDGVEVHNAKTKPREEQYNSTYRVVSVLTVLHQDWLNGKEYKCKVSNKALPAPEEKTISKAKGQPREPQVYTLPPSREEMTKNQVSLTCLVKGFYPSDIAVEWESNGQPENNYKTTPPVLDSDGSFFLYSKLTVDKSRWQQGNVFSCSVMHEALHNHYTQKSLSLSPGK
light: DIQMTQSPSSLSASVGDRVTITCRTSENVYSYLAWYQQKPGKAPKLLVSFAKTLAEGVPSRFSGSGSGTDFTLTISSLQPEDFATYFCQHHSDNPWTFGQGTKVEIKRTVAAPSVFIFPPSDEQLKSGTASVVCLLNNFYPREAKVQWKVDNALQSGNSQESVTEQDSKDSTYSLSSTLTLSKADYEKHKVYACEVTHQGLSSPVTKSFNRGEC
notes: as for B1
For the molecule B2, the “fold increased binding against the non Fc-engineered IgG1 reference antibody” value in assay [1] was around 40 fold. Besides, the Kd in assay [3] was found to be 9.3 nM; in assay [4], 21.1 nM.
